Measured values published in article doi:10.1101/2022.07.10.499479.
Read-outs that look alike come from different tables or passages of the source.

Legend:
[1] = target: membrane-anchored iLID (improved Light Induced Dimerization protein with an N-terminal TatA-derived transmembrane helix) (Avena sativa); experiment: 3D single-molecule tracking in live cells
[2] = target: membrane-anchored iLID (improved Light Induced Dimerization protein with an N-terminal TatA-derived transmembrane helix) (Avena sativa)
[3] = target: membrane-anchored iLID (improved Light Induced Dimerization protein with an N-terminal TatA-derived transmembrane helix) (Avena sativa); experiment: 3D single-molecule tracking in live cells; remark: listed apart in the source
[4] = target: membrane-anchored iLID (improved Light Induced Dimerization protein with an N-terminal TatA-derived transmembrane helix) (Avena sativa); experiment: 3D single-molecule tracking in live cells; remark: listed apart in the source
[5] = target: membrane-anchored iLID (improved Light Induced Dimerization protein with an N-terminal TatA-derived transmembrane helix) (Avena sativa); remark: listed apart in the source
[6] = target: membrane-anchored iLID (improved Light Induced Dimerization protein with an N-terminal TatA-derived transmembrane helix) (Avena sativa); experiment: 3D single-molecule tracking in live cells; remark: listed apart in the source

Row | Substance | Kd [1] [nM] | fold increase in affinity upon 488 nm illumination against before [1] [fold] | fraction iLID-associated [1] [%] | median bound time t (bound) [2] [ms] | fraction iLID-associated [3] [%] | fraction iLID-associated [4] [%] | fraction slowly diffusing (iLID-associated) [1] [%] | fraction of molecules at the membrane [5] [%] | fraction slowly diffusing (iLID-associated) [6] [%]
1 | SspB_(micro)-Halo labelled with JFX549 | 510 | 2 | 45 | 300 | 48 | 31 |  |  | 
2 | SspB_(milli)-Halo labelled with JFX549 |  |  | 7 | 175 |  | 6 |  |  | 
3 | SspB_(nano)-Halo labelled with JFX549 |  |  |  | 350 |  |  | 48 | > 80 | 56
